Molecular target: T1, EED, comprising residues 76–441 (TEV-cleaved, used for crystallization) (human, UniProt O75530 76-441)
T1 construct: EED (embryonic ectoderm development), human, residues 76-441, cloned into pGEX-KG; The EED in PDB 5H13 (no EZH2 peptide) was cleaved with thrombin instead of TEV; also called embryonic ectoderm development; TEV-cleaved EED protein; source: E. coli BL21-CodonPlus(DE3)-RIL, purified (Glutathione Sepharose 4B, TEV cleavage, Ni2+-NTA flow-through, Superdex 75); not shown: GST, N-terminal, cleaved
Assay: crystal structure; TEV-cleaved EED (76-441) mixed with EZH2 peptide at molar ratio 1:2.5; EED-EBD crystals soaked with EED709, EED666 or EED210 (0.1 M Tris pH 8.0, 16% PEG 8000, 20°C) or co-crystallised with EED162 (0.1 M Bis-Tris pH 6.0, 0.2 M MgCl2, 20% PEG 3350)
Conditions: both partners purified

T1 sequence (O75530 76-441): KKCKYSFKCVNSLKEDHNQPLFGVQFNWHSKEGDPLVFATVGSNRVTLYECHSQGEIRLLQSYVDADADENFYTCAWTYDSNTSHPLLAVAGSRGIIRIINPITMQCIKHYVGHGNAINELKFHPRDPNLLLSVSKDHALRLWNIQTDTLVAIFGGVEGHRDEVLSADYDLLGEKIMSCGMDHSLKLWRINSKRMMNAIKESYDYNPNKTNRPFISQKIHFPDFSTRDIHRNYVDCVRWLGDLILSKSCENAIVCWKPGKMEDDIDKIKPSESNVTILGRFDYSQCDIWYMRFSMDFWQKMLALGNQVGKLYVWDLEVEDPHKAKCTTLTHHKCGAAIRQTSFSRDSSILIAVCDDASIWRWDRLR

B1: EZH2 peptide (residues 40–68, EBD) (peptide)
peptide: KSMFSSNRQKILERTEILNQEWKQRRIQPV
notes: EZH2 (Enhancer of zeste homolog 2), human; Printed as NH2-...-CO2H (free ends); also called EBD peptide; EZH2 peptide (40–68); source: synthetic peptide (GL Biochem)
  binding result: binds

— paper PMC5224880, “Discovery and Molecular Basis of a Diverse Set of Polycomb Repressive Complex 2 Inhibitors Recognition by EED” (PLoS ONE, 2017)
